Experiments:
[1] = biological target: DNP-BSA (UniProt P02769); test: BLI, antibody captured on AMC sensor, DNP-BSA in solution
[2] = biological target: DNP-BSA (UniProt P02769); test: indirect ELISA, DNP-BSA coated 3 ug/ml, antibody at 125 ng/ml
[3] = biological target: DNP-BSA (UniProt P02769); test: indirect ELISA, DNP-BSA coated 3 ug/ml, antibody at 62.5 ng/ml
[4] = biological target: DNP-BSA (UniProt P02769); test: indirect ELISA, DNP-BSA coated 3 ug/ml, antibody at 31.25 ng/ml
[5] = biological target: DNP-BSA (UniProt P02769); test: indirect ELISA, DNP-BSA coated 3 ug/ml, antibody at 7.813 ng/ml
[6] = biological target: DNP-BSA (UniProt P02769); test: indirect ELISA, DNP-BSA coated 3 ug/ml, antibody at 15.625 ng/ml
[7] = biological target: DNP-BSA (UniProt P02769); test: indirect ELISA on DNP-BSA, antibody stored 21 days at 4 C, at 125 ng/ml
[8] = biological target: DNP-BSA (UniProt P02769); test: indirect ELISA on DNP-BSA, antibody stored 21 days at 37 C, at 125 ng/ml
[9] = biological target: DNP-BSA (UniProt P02769); test: indirect ELISA on DNP-BSA, antibody stored 21 days at -80 C, at 125 ng/ml
[10] = biological target: DNP-BSA (UniProt P02769); test: indirect ELISA on DNP-BSA, antibody stored 21 days at 4 C, at 15.625 ng/ml
[11] = biological target: DNP-BSA (UniProt P02769); test: indirect ELISA on DNP-BSA, antibody stored 21 days at 37 C, at 15.625 ng/ml
[12] = biological target: DNP-BSA (UniProt P02769); test: indirect ELISA on DNP-BSA, antibody stored 21 days at -80 C, at 15.625 ng/ml

Chain of UniProt P02769 (P02769 25-607 limits assumed, form in doubt): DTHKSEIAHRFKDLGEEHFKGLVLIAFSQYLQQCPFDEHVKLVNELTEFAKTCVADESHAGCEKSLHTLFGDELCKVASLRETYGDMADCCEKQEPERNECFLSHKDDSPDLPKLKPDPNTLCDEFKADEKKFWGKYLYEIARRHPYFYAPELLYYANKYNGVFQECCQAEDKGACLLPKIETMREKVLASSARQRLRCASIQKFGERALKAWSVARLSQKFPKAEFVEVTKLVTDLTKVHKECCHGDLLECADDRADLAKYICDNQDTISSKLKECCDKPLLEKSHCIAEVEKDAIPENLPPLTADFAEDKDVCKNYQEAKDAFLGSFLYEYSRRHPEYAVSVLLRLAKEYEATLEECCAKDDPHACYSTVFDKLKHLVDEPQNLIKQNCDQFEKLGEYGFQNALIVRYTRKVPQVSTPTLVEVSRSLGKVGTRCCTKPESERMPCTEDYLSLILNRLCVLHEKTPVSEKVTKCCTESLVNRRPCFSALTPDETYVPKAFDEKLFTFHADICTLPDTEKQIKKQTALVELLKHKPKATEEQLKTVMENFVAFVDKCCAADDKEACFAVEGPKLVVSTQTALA

对照 (antibody)
Kd [1]: 2.57 nM
koff [1]: 0.00055 s⁻¹
kon [1]: 214000 M⁻¹ s⁻¹
OD (450 nm, ref 630 nm) [2]: 2.37 OD
OD (450 nm, ref 630 nm) [3]: 1.53 OD
OD (450 nm, ref 630 nm) [4]: 0.949 OD
OD (450 nm, ref 630 nm) [5]: 0.229 OD
OD (450 nm, ref 630 nm) [6]: 0.375 OD

B1: Anti-DNP-6G1mut2 (antibody, mouse IgG1, V domains shown)
VH: EVQLQESGPSLVKPSQTLSLTCSVTGDSIITGYWNWIRKFPGNKLEFMGYISYSGRTYYNPSLKSRVSITRDTSKNQYYLQLSSVTTEDAATYYCTRWTTAYFGIDSWGQGISVTVSS
VL: QAVVTQESALTTSPGGTVILTCRSSTGAVTTSNNANWVQEKPDHLFTGLIGGTSNRAPGVPVRFSGSLIGDKAALTITGAQTEDDAMYFCALWYSTHYVFGGGTKVTVLG
Kd [1]: 0.287 nM
koff [1]: 0.00039 s⁻¹
kon [1]: 1.36e+06 M⁻¹ s⁻¹
OD (450 nm, ref 630 nm) [2]: 2.28 OD
OD (450 nm, ref 630 nm) [3]: 2.17 OD
OD (450 nm, ref 630 nm) [4]: 1.61 OD
OD (450 nm, ref 630 nm) [5]: 0.516 OD
OD (450 nm, ref 630 nm) [6]: 0.987 OD

B2: Anti-DNP-6G1mut1 (antibody, mouse IgG1, V domains shown)
VH: EVQLQESGPSLVKPSQTLSLTCSVTGDSIITGYWNWIRKFPGNKLEFMGYISYSGRTYYNPSLKSRVSITRDTSKNQYYLQLSSVTTEDAATYYCTRWTTAYFGIDSWGQGISVTVSS
VL: QAVVTQESALTTSPGGTVILTCRSSTGAVTTSNNANWVQEKPDHLFTGLIGGTSNRAPGVPVRFSGSLIGDKAALTITGAQTEDDAMYFCAIWYSTHYVFGGGTKVTVLG
Kd [1]: 0.168 nM
koff [1]: 0.00042 s⁻¹
kon [1]: 2.5e+06 M⁻¹ s⁻¹
OD (450 nm, ref 630 nm) [2]: 2.25 OD
OD (450 nm, ref 630 nm) [3]: 1.95 OD
OD (450 nm, ref 630 nm) [4]: 1.69 OD
OD (450 nm, ref 630 nm) [5]: 0.504 OD
OD (450 nm, ref 630 nm) [6]: 0.96 OD
OD (450 nm, ref 630 nm) [7]: 2.21 OD
OD (450 nm, ref 630 nm) [8]: 2.26 OD
OD (450 nm, ref 630 nm) [9]: 2.24 OD
OD (450 nm, ref 630 nm) [10]: 0.991 OD
OD (450 nm, ref 630 nm) [11]: 0.985 OD
OD (450 nm, ref 630 nm) [12]: 0.977 OD
